Each block holds one molecule with its values, some of them ahead of it.
Key:
[1] = molecular target: calpain-3 (C129A) ΔNS&IS1 (human) (UniProt P20807); test: SEC-MALS
native gel or EMSA = molecular target: the molecule itself; test: native gel or EMSA
SEC-MALS = molecular target: the molecule itself; test: SEC-MALS
SEC-SAXS = molecular target: the molecule itself; test: SEC-SAXS

stoichiometry N (titin per calpain-3) [1]: 2
Molecule: titin N2A region I81-I83 fragment (without His-tag) (domain or fragment)

B1: calpain-3 (C129A) ΔNS&IS1 (enzyme, human, UniProt P20807-1 1-821, looked up)
chain: MISRNFPIIGVKEKTFEQLHKKCLEKKVLYVDPEFPPDETSLFYSQKFPIQFVWKRPPEICENPRFIIDGANRTDICQGELGDAWFLAAIACLTLNQHLLFRVIPHDQSFIENYAGIFHFQFWRYGEWVDVVIDDCLPTYNNQLVFTKSNHRNEFWSALLEKAYAKLHGSYEALKGGNTTEAMEDFTGGVAEFFEIRDAPSDMYKIMKKAIERGSLMGCSIDTIIPVQYETRMACGLVRGHAYSVTGLDEVPFKGEKVKLVRLRNPWGQVEWNGSWSDRWKDWSFVDKDEKARLQHQVTEDGEFWMSYEDFIYHFTKLEICNLTADALQSDKLQTWTVSVNEGRWVRGCSAGGCRNFPDTFWTNPQYRLKLLEEDDDPDDSEVICSFLVALMQKNRRKDRKLGASLFTIGFAIYEVPKEMHGNKQHLQKDFFLYNASKARSKTYINMREVSQRFRLPPSEYVIVPSTYEPHQEGEFILRVFSEKRNLSEEVENTISVDRPVKKKKTKPIIFVSDRANSNKELGVDQESEEGKGKTSPDKQKQSPQPQPGSSDQESEEQQQFRNIFKQIAGDDMEICADELKKVLNTVVNKHKDLKTHGFTLESCRSMIALMDTDGSGKLNLQEFHHLWNKIKAWQKIFKHYDTDQSGTINSYEMRNAVNDAGFHLNNQLYDIITMRYADKHMNIDFDSFICCFVRLEGMFRAFHAFDKDGDGIIKLNVLEWLQLTMYA
stoichiometry N (native gel or EMSA): 2 | stoichiometry N (SEC-MALS): 5 | stoichiometry N (SEC-SAXS): 6

From paper PMC10925265 (bioRxiv, 2024)
